According to patent US20190016800A1:

Target: cynomolgus monkey LAG-3 protein (Cat#LA3-C52A0, Acrobiosystems) (cynomolgus monkey)
Test: BLI ForteBio Octet RED 96, biotin labeled antibody on streptavidin sensor, antigen 3.125-100 nM, 1:1 fit

Kd: 2.22 nM
Substance: LAG3.5 (BMS-986016, developed by Bristol-Myers Squibb) (antibody)
